Data set [1] concerns the target T1, human XPD, wild type (XPD-FLAG) (human) (UniProt P18074).
T1 sequence: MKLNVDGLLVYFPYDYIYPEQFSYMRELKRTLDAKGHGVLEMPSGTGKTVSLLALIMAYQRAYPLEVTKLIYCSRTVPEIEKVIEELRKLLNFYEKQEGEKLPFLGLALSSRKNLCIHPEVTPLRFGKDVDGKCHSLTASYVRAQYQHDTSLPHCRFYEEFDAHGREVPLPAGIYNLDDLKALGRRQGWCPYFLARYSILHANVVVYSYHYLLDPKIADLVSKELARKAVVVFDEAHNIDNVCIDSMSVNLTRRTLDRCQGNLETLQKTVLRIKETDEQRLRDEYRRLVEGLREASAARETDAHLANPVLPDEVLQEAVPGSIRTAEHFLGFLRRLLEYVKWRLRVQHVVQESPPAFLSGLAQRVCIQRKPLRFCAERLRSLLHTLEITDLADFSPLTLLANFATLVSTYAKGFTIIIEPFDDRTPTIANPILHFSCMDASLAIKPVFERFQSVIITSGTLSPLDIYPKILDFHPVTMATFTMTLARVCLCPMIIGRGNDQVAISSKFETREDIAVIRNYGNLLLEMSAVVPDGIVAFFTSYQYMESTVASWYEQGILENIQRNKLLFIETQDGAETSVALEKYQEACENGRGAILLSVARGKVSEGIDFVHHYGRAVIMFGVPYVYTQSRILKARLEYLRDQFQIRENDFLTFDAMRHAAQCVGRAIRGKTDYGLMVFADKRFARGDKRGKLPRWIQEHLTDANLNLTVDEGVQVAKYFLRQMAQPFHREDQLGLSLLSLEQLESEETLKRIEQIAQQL

Data set [2] concerns the target Chaetomium thermophilum XPD, wild type (Chaetomium thermophilum).
Data set [3] addresses ctXPD K369A (Chaetomium thermophilum).
Data set [4] has as its target Chaetomium thermophilum XPD, wild type (Chaetomium thermophilum). Briefly: native gel or EMSA; native PAGE of ctXPD with the ctMAT1 fragments ctMAT1Archway and ctMAT1Lock at similar concentrations (Supplementary Fig. 2c); unbound fragment quantified. In general terms: Mobility shift assays separate free from complexed probe on a gel.
In data set [5] the test system is ctXPD R333S/R334S (Chaetomium thermophilum). Briefly: fluorescence anisotropy. As to conditions: 5 mM Mg2+, ctXPD: 20 mM HEPES pH 7.5, 50 mM KCl, 5 mM MgCl2, 1 mM TCEP, 5 nM DNA, room temperature, ctDDX11: 25 mM HEPES pH 7.5, 25 mM KCl, 1 mM MgSO4, 1 mM TCEP, 2 nM ….
Data set [6] concerns ctDDX11 K427E/K428E (Chaetomium thermophilum). The data set can be described thus: fluorescence anisotropy. As to conditions: 1 mM MgSO4, 25 mM HEPES pH 7.5, 25 mM KCl, 2 nM DNA, ctXPD: 20 mM HEPES pH 7.5, 50 mM KCl, 5 mM MgCl2, 1 mM TCEP, 5 nM DNA, room temperature, ctDDX11: 25 mM HEPES pH 7.5, 25 mM KCl, 1 mM MgSO4, 1 mM TCEP. For orientation: Polarisation of emitted light reports the rotation of a fluorescent probe.

Data set [7] has as its system ctXPD wild type (Chaetomium thermophilum). The data set can be described thus: fluorescence anisotropy. The settings on record: 5 mM Mg2+; no MAT1; ctXPD: 20 mM HEPES pH 7.5, 50 mM KCl, 5 mM MgCl2, 1 mM TCEP, 5 nM DNA, room temperature; ctDDX11: 25 mM HEPES pH 7.5, 25 mM KCl, 1 mM MgSO4, 1 mM TCEP, 2 nM ….
The subject of data set [8] is ctXPD R324E (Chaetomium thermophilum). The data set can be described thus: fluorescence anisotropy. As to conditions: 5 mM Mg2+; no MAT1; ctXPD: 20 mM HEPES pH 7.5, 50 mM KCl, 5 mM MgCl2, 1 mM TCEP, 5 nM DNA, room temperature; ctDDX11: 25 mM HEPES pH 7.5, 25 mM KCl, 1 mM MgSO4, 1 mM TCEP, 2 nM ….
The test system of data set [9] is ctXPD R323E (Chaetomium thermophilum). Briefly: fluorescence anisotropy. The settings on record: 5 mM Mg2+; no MAT1; ctXPD: 20 mM HEPES pH 7.5, 50 mM KCl, 5 mM MgCl2, 1 mM TCEP, 5 nM DNA, room temperature; ctDDX11: 25 mM HEPES pH 7.5, 25 mM KCl, 1 mM MgSO4, 1 mM TCEP, 2 nM ….
The test system of data set [10] is ctXPD R323S/R324S (Chaetomium thermophilum). Briefly: fluorescence anisotropy. The settings on record: 5 mM Mg2+, ctXPD: 20 mM HEPES pH 7.5, 50 mM KCl, 5 mM MgCl2, 1 mM TCEP, 5 nM DNA, room temperature, ctDDX11: 25 mM HEPES pH 7.5, 25 mM KCl, 1 mM MgSO4, 1 mM TCEP, 2 nM ….
Data set [11] concerns ctXPD K369E (Chaetomium thermophilum). Briefly: fluorescence anisotropy. The settings on record: 5 mM Mg2+; no MAT1; text gives 54 nM; ctXPD: 20 mM HEPES pH 7.5, 50 mM KCl, 5 mM MgCl2, 1 mM TCEP, 5 nM DNA, room temperature; ctDDX11: 25 mM HEPES pH 7.5, 25 mM KCl, 1 mM MgSO4, 1 mM TCEP, 2 nM ….
Data set [12] deals with ctXPD R333E/R334E (Chaetomium thermophilum). The data set can be described thus: fluorescence anisotropy. The settings on record: 5 mM Mg2+; no MAT1; ctXPD: 20 mM HEPES pH 7.5, 50 mM KCl, 5 mM MgCl2, 1 mM TCEP, 5 nM DNA, room temperature; ctDDX11: 25 mM HEPES pH 7.5, 25 mM KCl, 1 mM MgSO4, 1 mM TCEP, 2 nM ….
For data set [13], the system named is ctXPD wild type;ctMAT1Lock (Chaetomium thermophilum;Chaetomium thermophilum). The data set can be described thus: fluorescence anisotropy. As to conditions: 5 mM Mg2+; equimolar ctMAT1Lock; ctXPD: 20 mM HEPES pH 7.5, 50 mM KCl, 5 mM MgCl2, 1 mM TCEP, 5 nM DNA, room temperature; ctDDX11: 25 mM HEPES pH 7.5, 25 mM KCl, 1 mM MgSO4, 1 mM TCEP, 2 nM ….
In data set [14] the test system is ctDDX11 wild type (Chaetomium thermophilum). The data set can be described thus: fluorescence anisotropy. As to conditions: 1 mM MgSO4, 25 mM HEPES pH 7.5, 25 mM KCl, 2 nM DNA, ctXPD: 20 mM HEPES pH 7.5, 50 mM KCl, 5 mM MgCl2, 1 mM TCEP, 5 nM DNA, room temperature, ctDDX11: 25 mM HEPES pH 7.5, 25 mM KCl, 1 mM MgSO4, 1 mM TCEP.
Setting [15] is: equimolar ctMAT1Lock present (not bound by variant).

The substance “human CAK with MAT1 D97S/E100S (from UniProt P51948 1-309; P50613 1-346; P51946 1-323) (complex)” gave an in vitro run-off transcription with core-TFIIH lacking XPD (rIIH6), XPD and the CAK variant, residual activity against wild-type CAK in data set [1] of 55%.
In data set [2], “ctMAT1Lock (residues 1-157 of Chaetomium thermophilum MAT1) (domain or fragment)” gave an inhibition of ctXPD helicase activity (with ctp44, 5' overhang substrate) by titration of the ctMAT1 construct, IC50 of 220 nM. Also, in data set [3], the inhibition of helicase activity of the ctXPD variant by ctMAT1Lock, IC50 was found to be 263 nM. This substance yielded a percent unbound ctMAT1 fragment in [4] of 12.8%.
In general, Kd refers to the equilibrium constant for the complex coming apart. A high value points to a looser complex. For “AGCTACCATGCCTGCACGAATTAAGCAATTCGTAATCATGGTCATAGC / GCTATGACCATGATTACGAATTGCTTGGAATCCTGACGAACTGTAG [splayed duplex DNA]”, the Kd came to 128 nM in data set [5] (setting [15]); 154 nM in data set [5] (no MAT1); 50.8 nM in data set [6]; 66 nM in data set [7]; 72 nM in data set [8]; 41 nM in data set [9]. For the same substance, the equilibrium dissociation constant (Kd) turned out to be 31 nM in data set [10] (setting [15]); 51 nM in [10] (no MAT1); 55 nM in data set [11]; 108 nM in data set [12]; 379 nM in data set [13]; 30.8 nM in [14].
On to “ctMAT1Archway (residues 83-157 of Chaetomium thermophilum MAT1) (domain or fragment)”, for which, in data set [2], the inhibition of ctXPD helicase activity (with ctp44, 5' overhang substrate) by titration of the ctMAT1 construct, IC50 came out at 2990 nM. The same substance showed a percent unbound ctMAT1 fragment in data set [4] of 84%.
